According to PMC12421323:

Columns and labels:
nucleolin (C23) [1] = biological target: T1, nucleolin (C23) (UniProt P19338 2-710); experiment: EMSA
nucleolin (C23) [2] = biological target: T1, nucleolin (C23); experiment: competition
nucleolin (C23) [3] = biological target: T1, nucleolin (C23); experiment: EMSA; remark: listed apart in the source

T1 sequence (P19338 2-710): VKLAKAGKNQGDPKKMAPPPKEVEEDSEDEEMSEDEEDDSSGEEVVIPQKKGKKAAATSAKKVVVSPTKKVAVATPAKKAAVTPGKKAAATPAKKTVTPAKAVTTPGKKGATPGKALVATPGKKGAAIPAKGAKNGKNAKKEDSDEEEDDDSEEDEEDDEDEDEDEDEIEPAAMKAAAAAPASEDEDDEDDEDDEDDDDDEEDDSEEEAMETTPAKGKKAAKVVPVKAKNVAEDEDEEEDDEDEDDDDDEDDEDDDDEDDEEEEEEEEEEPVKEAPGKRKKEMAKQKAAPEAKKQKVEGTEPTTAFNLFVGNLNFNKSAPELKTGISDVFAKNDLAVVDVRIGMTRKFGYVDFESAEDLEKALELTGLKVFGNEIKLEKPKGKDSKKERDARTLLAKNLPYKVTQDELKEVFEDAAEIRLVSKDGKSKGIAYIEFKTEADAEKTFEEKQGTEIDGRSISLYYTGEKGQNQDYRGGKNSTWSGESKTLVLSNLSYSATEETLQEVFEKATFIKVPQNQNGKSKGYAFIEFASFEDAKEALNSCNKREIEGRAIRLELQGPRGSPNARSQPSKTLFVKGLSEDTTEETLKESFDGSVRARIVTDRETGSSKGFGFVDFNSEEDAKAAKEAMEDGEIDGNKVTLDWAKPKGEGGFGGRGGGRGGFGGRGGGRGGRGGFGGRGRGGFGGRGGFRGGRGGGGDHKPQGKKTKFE

UGCUUACGUAGCGUGCCUUA (ssRNA) [ssRNA 2]: binds (nucleolin (C23) [1]).

TTGGGCGGGCCGGGGGCGGG (structured_DNA) [VEGF G4 (unlabelled)]: binds (nucleolin (C23) [2]).

TTGGGCGGGCCGGGGGCGGG (structured_DNA) [VEGF G4]: binds (nucleolin (C23) [3]).
